Measurements reported in the supplement of paper PMC12067230.
± gives the uncertainty stated by the source.

B1: C-22-W; numbered along this chain (parent)
chain: EASNCFAIRHFENKFAVETLICFNLFLNSQEKHY

Variants of: B1
Test: amyloid nucleation score relative to WT ADan (yeast Sup35 reporter selection) (log enrichment difference); higher = more amyloid nucleation
Experimental: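 Deep mutational scan of the ADan peptide fused to the Sup35 nucleation domain (SupN) in S. cerevisiae [psi-pin-], covering all single amino-acid substitutions and stop truncations (truncations = sequence up to the stop). After 24 h Cu2+ induction, cells were selected on -ADE-URA plates for 7 d at 30 °C. The nucleation score is log enrichment (output/input, deep sequencing) minus that of WT ADan, as the error-weighted mean of 3 biological replicates (DiMSum).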

Amyloid nucleation score: each site, then its substitutions
C22: W -2.89 ± 0.21; D -3.23 ± 0.32; R -3.03 ± 0.21; S -1.65 ± 0.1; H -1.92 ± 0.28; Y -2.4 ± 0.18; E -2.4 ± 0.2; N 0.532 ± 0.16; Q 0.969 ± 0.17; K -2.31 ± 0.24; G -1.17 ± 0.097; T -0.69 ± 0.14; F -0.753 ± 0.13; L -0.346 ± 0.099; A 0.347 ± 0.1; V 0.222 ± 0.1; P -3.23 ± 0.46; I -0.375 ± 0.17
K32: N 0.686 ± 0.14; W -0.739 ± 0.13; C -0.144 ± 0.13; D 0.768 ± 0.14; Q 0.041 ± 0.16; G 0.113 ± 0.081; F -0.726 ± 0.15; H 0.279 ± 0.17; V -0.601 ± 0.097; A 0.179 ± 0.12; P 0.00117 ± 0.17; Y -0.0344 ± 0.16; I -1.31 ± 0.18; T 0.234 ± 0.13; L -0.598 ± 0.098; S 0.198 ± 0.091; R -0.086 ± 0.083; M -0.157 ± 0.14; E 0.78 ± 0.13
L25: D -1.12 ± 0.21; C 0.731 ± 0.15; Q 0.382 ± 0.21; V -0.125 ± 0.1; E -1.98 ± 0.24; R -3.04 ± 0.21; P -1.7 ± 0.32; W -2.87 ± 0.22; K -2.69 ± 0.35; M 0.178 ± 0.14; Y 0.539 ± 0.16; A 0.9 ± 0.13; I -0.254 ± 0.15; H -2.4 ± 0.3; F 0.0915 ± 0.14; S -2.33 ± 0.17; T 0.368 ± 0.14; G -1.88 ± 0.14; N 0.307 ± 0.17
Y34: F -0.228 ± 0.14; C 0.316 ± 0.14; T -0.062 ± 0.14; Q 0.196 ± 0.2; H 0.0246 ± 0.18; W -0.636 ± 0.14; E 0.297 ± 0.14; R 0.398 ± 0.088; D 0.321 ± 0.13; I -0.222 ± 0.16; A -0.0498 ± 0.12; V 0.031 ± 0.11; K 0.234 ± 0.17; P -0.211 ± 0.18; S 0.193 ± 0.1; N -0.386 ± 0.18; M 0.0777 ± 0.15; L -0.0163 ± 0.1; G 0.194 ± 0.098
T19: E -0.714 ± 0.17; M -1.99 ± 0.54; R 0.563 ± 0.1; N 0.196 ± 0.16; H -0.0921 ± 0.27; P 0.859 ± 0.18; K 0.347 ± 0.17; G 0.166 ± 0.098; A -2.16 ± 0.23; F -3.39 ± 0.4; S 0.268 ± 0.11; D -0.804 ± 0.17; Q 0.45 ± 0.2; L -4.84 ± 0.63; C -2.47 ± 0.27; W -2.17 ± 0.28; Y -0.511 ± 0.18; V -3.41 ± 0.34; I -3.44 ± 0.43
E31: T -1.22 ± 0.17; I -2.59 ± 0.25; W -6.44 ± 1.2; H -1.64 ± 0.22; A -1.39 ± 0.15; R -2.51 ± 0.16; K -1.84 ± 0.2; M -3.06 ± 0.36; S -0.961 ± 0.12; G -0.564 ± 0.087; N -0.844 ± 0.19; P -0.569 ± 0.2; Q -0.871 ± 0.2; L -3.31 ± 0.34; V -1.09 ± 0.11; D -0.000529 ± 0.15; Y -2.5 ± 0.28; F -5.7 ± 0.96; C -2.07 ± 0.2
S29: K 0.205 ± 0.13; F -1.68 ± 0.16; C -0.0428 ± 0.11; E 0.219 ± 0.14; L -0.878 ± 0.081; A -0.27 ± 0.11; H -0.577 ± 0.18; Q 0.312 ± 0.16; Y -1.65 ± 0.17; I -1.29 ± 0.13; R -1.08 ± 0.082; N 0.0767 ± 0.12; T 0.043 ± 0.12; W -1.86 ± 0.15; M -0.489 ± 0.13; G -0.16 ± 0.079; P -0.168 ± 0.14; D 0.326 ± 0.14; V -0.294 ± 0.084
I21: R -1.05 ± 0.12; G -0.00868 ± 0.097; V -0.0338 ± 0.098; P -3.66 ± 0.62; Y 0.68 ± 0.17; A -0.465 ± 0.13; H 0.679 ± 0.27; Q 0.332 ± 0.19; M -0.308 ± 0.15; N 0.877 ± 0.15; L -0.0345 ± 0.097; F 0.0204 ± 0.11; D -3.79 ± 0.7; S 0.32 ± 0.097; C 0.511 ± 0.13; K -0.182 ± 0.17; W 0.109 ± 0.13; E -0.48 ± 0.17; T 0.7 ± 0.12
F23: Y 0.115 ± 0.13; V 0.2 ± 0.1; D 0.717 ± 0.2; P -1.99 ± 0.31; R 0.617 ± 0.092; E 0.416 ± 0.16; H 0.305 ± 0.19; I -0.248 ± 0.2; K 0.342 ± 0.22; M 0.264 ± 0.21; N -0.504 ± 0.4; A 0.41 ± 0.13; Q 0.146 ± 0.17; L 0.404 ± 0.084; W -0.121 ± 0.14; C 0.666 ± 0.14; G 0.469 ± 0.087
E18: V -2.72 ± 0.29; S -0.355 ± 0.11; W -4.12 ± 0.54; Y -5.47 ± 1.1; R -0.108 ± 0.1; T -1.61 ± 0.21
L20: S -3.53 ± 0.23; Q -1.95 ± 0.24; C -0.49 ± 0.13; H -2.5 ± 0.26; N -1.24 ± 0.19; E -3.91 ± 0.49; M 1.01 ± 0.17; P 0.75 ± 0.16; W -2.59 ± 0.24; G 0.273 ± 0.097; R -3.67 ± 0.24; F -0.103 ± 0.12; A -1.66 ± 0.16; V -1.46 ± 0.12; Y -2.66 ± 0.28; K -4.53 ± 0.6; D -2.35 ± 0.21; T -2.92 ± 0.34; I -0.22 ± 0.15
N28: I -0.963 ± 0.19; F -0.101 ± 0.16; M -0.403 ± 0.17; H -1.83 ± 0.29; G 0.0833 ± 0.098; W -1.06 ± 0.16; L -0.936 ± 0.11; C 0.468 ± 0.14; Q -0.0342 ± 0.22; E -0.442 ± 0.17; P 0.0596 ± 0.18; V -1.04 ± 0.12; A 0.139 ± 0.13; D -0.0589 ± 0.17; K -2.63 ± 0.29; Y -1.12 ± 0.17; S -0.365 ± 0.11; R -2.75 ± 0.18; T -0.313 ± 0.17
L27: P 0.545 ± 0.17; A -0.084 ± 0.11; E 0.567 ± 0.12; G 0.726 ± 0.075; W 0.0695 ± 0.11; I 0.00956 ± 0.13; K -0.947 ± 0.16; H 0.303 ± 0.18; F -0.518 ± 0.12; V 0.187 ± 0.079; C 0.66 ± 0.12; R -1.01 ± 0.091; T 0.731 ± 0.12; N 0.524 ± 0.13; Q 0.391 ± 0.15; M 0.15 ± 0.13; Y 0.163 ± 0.13; D 0.457 ± 0.13; S 0.669 ± 0.082
F26: Q -0.394 ± 0.21; R -2.51 ± 0.17; H 0.258 ± 0.19; E 0.392 ± 0.16; Y -0.164 ± 0.13; D -0.707 ± 0.18; S -0.00989 ± 0.098; K -3.31 ± 0.46; V -0.146 ± 0.095; N 0.113 ± 0.17; A -0.314 ± 0.14; P -3.34 ± 0.54; G 0.778 ± 0.095; M -0.622 ± 0.18; C 0.2 ± 0.14; L -0.42 ± 0.1; T -0.0939 ± 0.16; W 0.102 ± 0.14; I -0.509 ± 0.14
N24: P -0.19 ± 0.18; L -3.39 ± 0.23; F -3.3 ± 0.3; A -1.52 ± 0.15; W -4.76 ± 0.79; V -2.78 ± 0.16; H -3.55 ± 0.44; C -4.06 ± 0.36; I -3.74 ± 0.28; Q -0.992 ± 0.2; D -3.51 ± 0.25; K -3.17 ± 0.28; G -0.57 ± 0.096; Y -3.1 ± 0.21; T -2.11 ± 0.21; R -4.05 ± 0.38; S -0.773 ± 0.093; M -3.68 ± 0.37; E -3.7 ± 0.4
H33: C -1.33 ± 0.19; R -0.172 ± 0.093; F -0.205 ± 0.18; Q -0.171 ± 0.18; N 0.15 ± 0.16; I -1.01 ± 0.19; M -0.289 ± 0.17; E 0.174 ± 0.16; G -0.479 ± 0.096; V -0.668 ± 0.11; T -0.406 ± 0.17; P -0.211 ± 0.18; A -0.505 ± 0.13; D 0.264 ± 0.15; S -0.164 ± 0.1; Y -0.228 ± 0.17; W -0.788 ± 0.17; K -0.0712 ± 0.19; L -0.693 ± 0.12
Q30: Y -0.751 ± 0.14; P -0.153 ± 0.12; M -0.23 ± 0.12; N -0.383 ± 0.14; T -0.212 ± 0.11; L -0.134 ± 0.074; A -0.161 ± 0.099; V -0.127 ± 0.076; W -0.8 ± 0.12; E 0.219 ± 0.11; C -0.317 ± 0.12; F -0.531 ± 0.12; H -0.33 ± 0.15; D 0.207 ± 0.13; R -0.927 ± 0.079; S -0.0951 ± 0.078; K -1.41 ± 0.17; G -0.112 ± 0.071; I -0.931 ± 0.14
